Reference: article PMC9405524, “Pre‐steady‐state kinetics and solvent isotope effects support the “billiard‐type” transport mechanism in Na ^+‐translocating pyrophosphatase” (Protein Science : A Publication of the Protein Society, 2022)

Substrate: O=P(O)(O)OP(=O)(O)O
Experiment: PPi hydrolysis in inverted membrane vesicles, automatic Pi analyzer, two-site dimer equation
Format: biochemical, Thermotoga maritima
Settings: 40°C, pH 7.2, 0.1 M MOPS-KOH, 5 mM Mg2+, 10 mM NaCl, first (stronger) site of the dimer, concentration counted as Mg2PPi complex
Description: PPi hydrolysis in inverted membrane vesicles, automatic Pi analyzer, two-site dimer equation on Tm‐mPPase (Thermotoga maritima membrane pyrophosphatase)

B1: Tm‐mPPase (Thermotoga maritima membrane pyrophosphatase) (Thermotoga maritima MSB8) (protein)
chain: MYVAALFFLIPLVALGFAAANFAAVVRKPEGTERMKEISSYIRSGADSFLAHETKAIFKVAIVIAILLMIFTTWQTGVAFLLGAVMSASAGIVGMKMATRANVRVAEAARTTKKIGPALKVAYQGGSVMGLSVGGFALLGLVLVYLIFGKWMGQVDNLNIYTNWLGINFVPFAMTVSGYALGCSIIAMFDRVGGGVYTKAADMAADLVGKTELNLPEDDPRNPATIADNVGDNVGDVAGLGADLLESFVGAIVSSIILASYMFPIYVQKIGENLVHQVPKETIQALISYPIFFALVGLGCSMLGILYVIVKKPSDNPQRELNISLWTSALLTVVLTAFLTYFYLKDLQGLDVVGFRFGAISPWFSAIIGIFSGILIGFWAEYYTSYRYKPTQFLSKSSIEGTGMVISNGLSLGMKSVFPPTLTLVLGILFADYFAGLYGVAIAALGMLSFVATSVSVDSYGPIADNAGGISEMCELDPEVRKITDHLDAVGNTTAAIGKGFAIGSAIFAALSLFASYMFSQISPSDIGKPPSLVLLLNMLDARVIAGALLGAAITYYFSGYLISAVTKAAMKMVDEIRRQAREIPGLLEGKAKPDYNRCIEITSDNALKQMGYPAFIAILTPLVTGFLLGAEFVGGVLIGTVLSGAMLAILTANSGGAWDNAKKYLEAGNLEGYGKGSEPHKALVIGDTVGDPLKDTVGPSLDILIKIMSVVSVIAVSIFKHVHLF
notes: recombinant in E. coli C41(DE3), assayed in inverted membrane vesicles; homodimer, subunit mass 77 kDa
  Km: 1.41 ± 0.04 µM
